Experimental data published in patent US20230138315A1 (JIANGSU HENGRUI MEDICINE, published 2023).

T1: cynomolgus monkey ANGPTL3(17-460)-His (cynomolgus monkey, UniProt Q9Y5C1 17-460 (human entry), biotin-labelled in the ELISA and HTRF assays (sites not given))
T1 construct: also called full-length cynomolgus monkey ANGPTL3; Cyno ANGPTL3
T1 chain: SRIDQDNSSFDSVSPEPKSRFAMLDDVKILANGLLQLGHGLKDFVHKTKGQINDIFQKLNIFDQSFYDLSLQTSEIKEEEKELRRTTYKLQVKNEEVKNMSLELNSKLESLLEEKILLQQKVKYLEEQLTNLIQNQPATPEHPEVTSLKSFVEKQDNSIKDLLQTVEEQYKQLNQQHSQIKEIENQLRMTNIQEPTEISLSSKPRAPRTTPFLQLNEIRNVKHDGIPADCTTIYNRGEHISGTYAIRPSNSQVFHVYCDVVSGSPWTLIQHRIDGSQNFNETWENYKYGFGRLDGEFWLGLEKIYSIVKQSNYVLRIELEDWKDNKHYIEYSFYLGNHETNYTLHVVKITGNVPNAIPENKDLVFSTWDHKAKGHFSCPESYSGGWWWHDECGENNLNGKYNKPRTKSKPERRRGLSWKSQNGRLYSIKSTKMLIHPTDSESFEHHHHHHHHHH

T2: rat ANGPTL3(17-455)-His (rat, biotin-labelled in the ELISA and HTRF assays (sites not given))
T2 construct: also called full-length rat ANGPTL3
T2 chain: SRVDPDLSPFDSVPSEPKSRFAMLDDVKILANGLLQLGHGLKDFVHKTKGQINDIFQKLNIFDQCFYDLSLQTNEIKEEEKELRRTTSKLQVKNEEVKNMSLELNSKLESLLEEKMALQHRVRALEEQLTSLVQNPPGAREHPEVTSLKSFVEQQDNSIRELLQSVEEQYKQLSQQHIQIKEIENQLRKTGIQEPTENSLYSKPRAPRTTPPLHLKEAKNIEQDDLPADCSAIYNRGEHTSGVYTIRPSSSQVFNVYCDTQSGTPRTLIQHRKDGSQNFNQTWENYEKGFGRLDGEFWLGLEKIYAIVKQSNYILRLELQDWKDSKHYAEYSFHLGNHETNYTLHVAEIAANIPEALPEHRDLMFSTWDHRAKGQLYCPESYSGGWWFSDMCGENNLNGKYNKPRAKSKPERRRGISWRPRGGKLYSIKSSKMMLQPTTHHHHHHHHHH

T3: mouse ANGPTL3(17-455)-His (mouse, UniProt Q9R182 17-455, biotin-labelled in the ELISA and HTRF assays (sites not given))
T3 construct: also called full-length mouse ANGPTL3
T3 sequence: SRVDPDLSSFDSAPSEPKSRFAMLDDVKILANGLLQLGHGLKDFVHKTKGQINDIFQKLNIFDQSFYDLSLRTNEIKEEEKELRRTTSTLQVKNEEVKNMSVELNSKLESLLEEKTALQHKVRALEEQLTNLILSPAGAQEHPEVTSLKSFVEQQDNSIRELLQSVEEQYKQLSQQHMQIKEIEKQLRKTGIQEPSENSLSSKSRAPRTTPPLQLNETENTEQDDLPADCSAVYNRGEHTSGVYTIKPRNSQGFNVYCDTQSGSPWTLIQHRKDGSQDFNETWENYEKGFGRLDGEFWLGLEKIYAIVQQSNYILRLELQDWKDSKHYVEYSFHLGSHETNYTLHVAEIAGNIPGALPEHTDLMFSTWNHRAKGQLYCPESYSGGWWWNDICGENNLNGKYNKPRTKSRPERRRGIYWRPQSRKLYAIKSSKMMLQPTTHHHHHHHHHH

T4: human-ANGPTL3(17-460)-His (human, UniProt Q9Y5C1 17-460, biotin-labelled (labelling kit, sites not stated))
T4 construct: also called full-length human ANGPTL3
T4 sequence: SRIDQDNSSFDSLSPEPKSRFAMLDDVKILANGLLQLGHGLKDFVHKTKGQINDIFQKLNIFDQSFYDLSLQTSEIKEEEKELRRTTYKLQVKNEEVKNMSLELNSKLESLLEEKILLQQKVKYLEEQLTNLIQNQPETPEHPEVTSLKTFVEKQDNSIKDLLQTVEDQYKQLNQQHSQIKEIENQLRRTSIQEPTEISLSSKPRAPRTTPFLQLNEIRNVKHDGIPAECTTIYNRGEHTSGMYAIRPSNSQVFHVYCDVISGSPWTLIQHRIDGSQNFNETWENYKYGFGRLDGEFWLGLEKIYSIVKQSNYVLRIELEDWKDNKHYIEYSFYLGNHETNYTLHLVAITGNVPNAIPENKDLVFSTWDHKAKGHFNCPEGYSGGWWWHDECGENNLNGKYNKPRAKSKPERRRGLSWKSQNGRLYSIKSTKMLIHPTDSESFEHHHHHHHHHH


Columns and labels:
Experiment in all cases: HTRF; biotin-labelled antigen with Streptavidin-Tb cryptate
[1] = target: T1, cynomolgus monkey ANGPTL3(17-460)-His
[2] = target: T2, rat ANGPTL3(17-455)-His
[3] = target: T3, mouse ANGPTL3(17-455)-His
[4] = target: T4, human-ANGPTL3(17-460)-His

Binder | EC50 [1] | EC50 [2] | EC50 [3] | EC50 [4]
P3G (antibody, human IgG4 S228P, kappa, V domains shown, also called anti-ANGPTL3 antibody P3G; P3 (variable regions)) VH: QVQLVQSGAEVKKPGASVKVSCKSSGYTFTDYYLHWLRQAPGQGPEWMGWISPNSGGTSYAQKFQGRVTMTRDTSISTAYMELSSLRSDDTAVYYCARDIATLGNFFTYGMDVWGQGTTVTVSS VL: DIQLTQSPSSLSASVGDRVTITCRASQGIRNDLGWYQQKPGKAPKLLIYAASSLQSGVPSRFSGSGSGTDFTLTISSLQPEDFATYYCQQSYSSWTFGQGTKVEIKR | 0.502 nM | 0.597 nM | 0.638 nM | 0.929 nM
P8G (antibody, human IgG4 S228P, kappa, V domains shown, also called anti-ANGPTL3 antibody P8G; P8 (variable regions)) VH: QVQLVQSGAEVKKPGASVKVSCKASGYTFTSYDINWVRQAPGQGLEWVGLINPRDDSTSYAQKFQGRVTMTRDTSTSTMYMELSSLRSEDTAVYFCARDLGSIREVLYYGMDVWGQGTTVTVSS VL: not shown | 0.303 nM | 0.484 nM | 0.45 nM | 0.784 nM
